Reference: paper PMC10520629

Experiments:
[1] = molecular target: T1, full-length human HACE1 (HECT domain and Ankyrin repeat containing E3 Ubiquitin Protein Ligase 1), wild type, aa 1-909 (human), Q8IYU2; assay: SEC; gel filtration of purified full-length HACE1 (Superdex; 20 mM HEPES pH 8.0, 150 mM NaCl, 5% glycerol, 1 mM DTT); settings: remark: other sources report otherwise
T1 chain: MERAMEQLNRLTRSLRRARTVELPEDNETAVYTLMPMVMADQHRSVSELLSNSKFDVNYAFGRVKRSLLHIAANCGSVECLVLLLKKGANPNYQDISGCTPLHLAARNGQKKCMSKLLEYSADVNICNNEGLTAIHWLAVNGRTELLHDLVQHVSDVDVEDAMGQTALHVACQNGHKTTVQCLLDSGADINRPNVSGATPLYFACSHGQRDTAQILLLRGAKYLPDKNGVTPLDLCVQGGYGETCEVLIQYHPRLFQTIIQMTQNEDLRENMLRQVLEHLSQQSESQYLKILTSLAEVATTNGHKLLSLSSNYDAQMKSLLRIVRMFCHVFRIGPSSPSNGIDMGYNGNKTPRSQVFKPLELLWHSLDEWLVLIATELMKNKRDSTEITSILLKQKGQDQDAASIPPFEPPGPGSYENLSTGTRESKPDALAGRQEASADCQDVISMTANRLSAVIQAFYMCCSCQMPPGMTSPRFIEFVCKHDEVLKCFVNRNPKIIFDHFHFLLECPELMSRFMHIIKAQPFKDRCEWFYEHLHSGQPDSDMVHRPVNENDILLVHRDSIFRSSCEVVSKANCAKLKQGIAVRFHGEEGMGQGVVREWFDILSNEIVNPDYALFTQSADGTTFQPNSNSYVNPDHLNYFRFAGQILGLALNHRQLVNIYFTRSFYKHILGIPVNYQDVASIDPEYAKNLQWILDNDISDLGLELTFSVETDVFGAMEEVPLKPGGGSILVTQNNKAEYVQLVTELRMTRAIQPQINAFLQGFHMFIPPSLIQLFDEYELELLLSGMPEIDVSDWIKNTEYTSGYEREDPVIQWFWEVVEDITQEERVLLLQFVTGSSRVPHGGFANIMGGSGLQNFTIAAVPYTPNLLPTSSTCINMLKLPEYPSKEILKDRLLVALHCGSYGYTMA

[2] = molecular target: T1, full-length human HACE1 (HECT domain …); assay: AUC; sedimentation velocity, 40 000 rpm, 20 °C, continuous c(s) distribution model; settings: remark: other sources report otherwise

stoichiometry N [1]: 2
percent of molecules as dimer or higher oligomers [2]: 79%
B1: full-length human HACE1 (HECT domain and Ankyrin repeat containing E3 Ubiquitin Protein Ligase 1), wild type, aa 1-909, Q8IYU2 1-909 (enzyme)
chain: MERAMEQLNRLTRSLRRARTVELPEDNETAVYTLMPMVMADQHRSVSELLSNSKFDVNYAFGRVKRSLLHIAANCGSVECLVLLLKKGANPNYQDISGCTPLHLAARNGQKKCMSKLLEYSADVNICNNEGLTAIHWLAVNGRTELLHDLVQHVSDVDVEDAMGQTALHVACQNGHKTTVQCLLDSGADINRPNVSGATPLYFACSHGQRDTAQILLLRGAKYLPDKNGVTPLDLCVQGGYGETCEVLIQYHPRLFQTIIQMTQNEDLRENMLRQVLEHLSQQSESQYLKILTSLAEVATTNGHKLLSLSSNYDAQMKSLLRIVRMFCHVFRIGPSSPSNGIDMGYNGNKTPRSQVFKPLELLWHSLDEWLVLIATELMKNKRDSTEITSILLKQKGQDQDAASIPPFEPPGPGSYENLSTGTRESKPDALAGRQEASADCQDVISMTANRLSAVIQAFYMCCSCQMPPGMTSPRFIEFVCKHDEVLKCFVNRNPKIIFDHFHFLLECPELMSRFMHIIKAQPFKDRCEWFYEHLHSGQPDSDMVHRPVNENDILLVHRDSIFRSSCEVVSKANCAKLKQGIAVRFHGEEGMGQGVVREWFDILSNEIVNPDYALFTQSADGTTFQPNSNSYVNPDHLNYFRFAGQILGLALNHRQLVNIYFTRSFYKHILGIPVNYQDVASIDPEYAKNLQWILDNDISDLGLELTFSVETDVFGAMEEVPLKPGGGSILVTQNNKAEYVQLVTELRMTRAIQPQINAFLQGFHMFIPPSLIQLFDEYELELLLSGMPEIDVSDWIKNTEYTSGYEREDPVIQWFWEVVEDITQEERVLLLQFVTGSSRVPHGGFANIMGGSGLQNFTIAAVPYTPNLLPTSSTCINMLKLPEYPSKEILKDRLLVALHCGSYGYTMA
